Test results published in patent US11385226.

Target: recombinant Human IL-8 (BD Pharmingen cat #554609) (human) (UniProt P10145)
Assay: sandwich immunoassay on Capture Antibody 1 magnetic beads; potentiometric read-out of bound glucose oxidase conjugate after adding glucose; no potential without IL-8

Chain of recombinant Human IL-8 (BD Pharmingen cat #554609) (human) (P10145 28-99 limits assumed): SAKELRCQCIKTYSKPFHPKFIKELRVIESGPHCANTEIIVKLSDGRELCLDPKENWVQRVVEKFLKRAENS
Chain of Capture Antibody 2, an anti-Mouse α-Human IL-8 Monoclonal Antibody (for ICC, BD Pharmingen cat #550419), conjugated to Glucose Oxidase from Aspergillus niger (P13006 23-605): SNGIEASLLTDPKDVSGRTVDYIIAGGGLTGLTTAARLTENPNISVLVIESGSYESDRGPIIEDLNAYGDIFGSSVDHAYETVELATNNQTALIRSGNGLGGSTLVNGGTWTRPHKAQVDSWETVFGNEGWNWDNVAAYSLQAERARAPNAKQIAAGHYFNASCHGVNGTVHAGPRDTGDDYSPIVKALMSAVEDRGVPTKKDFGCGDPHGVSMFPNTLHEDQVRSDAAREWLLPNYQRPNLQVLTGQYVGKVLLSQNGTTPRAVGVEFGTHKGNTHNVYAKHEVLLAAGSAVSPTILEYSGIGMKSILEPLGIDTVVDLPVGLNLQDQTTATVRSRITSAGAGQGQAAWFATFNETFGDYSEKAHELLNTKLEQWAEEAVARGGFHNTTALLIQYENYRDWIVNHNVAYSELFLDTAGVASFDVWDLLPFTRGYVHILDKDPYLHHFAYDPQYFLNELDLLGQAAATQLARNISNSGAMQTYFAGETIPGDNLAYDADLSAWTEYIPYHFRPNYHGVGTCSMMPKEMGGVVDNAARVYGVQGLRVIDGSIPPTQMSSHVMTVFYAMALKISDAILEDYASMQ

potential: 1 to 55 mV
Substance: Capture Antibody 2, an anti-Mouse α-Human IL-8 Monoclonal Antibody (for ICC, BD Pharmingen cat #550419), conjugated to Glucose Oxidase from Aspergillus niger (from UniProt P13006 23-605)
